Where a chain is given by its changes, count along the chain named. Where no end group is shown, it is not given here. The star is where a group is joined. Biotin = O=C1N[C@H]2[C@H](CS[C@H]2CCCCC(=O)*)N1; Ahx = NCCCCCC(=O)O
Columns and labels:
alpha-synuclein seeds [1] = biological target: T1, alpha-synuclein seeds (UniProt P37840 1-140); assay: cell-based or functional assay
alpha-synuclein seeds [2] = biological target: T1, alpha-synuclein seeds; assay: cell-based or functional assay; remark: listed apart in the source
64-78aa = biological target: T2, 64-78aa; assay: indirect ELISA on biotinylated 15-mer peptide
T2 construct: also called alpha-synuclein peptide 64-78
T2 peptide: {Biotin-Ahx}-TNVGGAVVTGVTAVA
Description: (§1) Serum-free supernatants were harvested from stable hybridomas. The supernatants containing antibodies of interest were then screened by an indirect ELISA assay to determine epitopes. Epitopes were first determined using a library of 15-mer peptides covering the entire sequence of human alpha-synuclein protein, spanning amino acids (aa) 1-140 with 9aa offset and […] overlap. […] Briefly, streptavidin-coated ELISA plates were blocked overnight at 4° C. […] Plates were washed with PBS/0.05% Tween®20 and then incubated with the hybridoma supernatants at 1/100 dilution for 1 hour at 25° C.

82-96aa = biological target: T3, 82-96aa; assay: indirect ELISA on biotinylated 15-mer peptide
T3 construct: also called alpha-synuclein peptide 82-96
T3 peptide: {Biotin-Ahx}-VEGAGSIAAATGFVK
Description: as §1

118-132aa = biological target: T4, 118-132aa; assay: indirect ELISA on biotinylated 15-mer peptide
T4 peptide: {Biotin-Ahx}-VDPDNEAYEMPSEEG
Description: as §1

46-60aa = biological target: T5, 46-60aa; assay: indirect ELISA on biotinylated 15-mer peptide
T5 construct: also called alpha-synuclein peptide 46-60
T5 peptide: {Biotin-Ahx}-EGVVHGVATVAEKTK
Description: as §1

127-140aa = biological target: T6, 127-140aa; assay: indirect ELISA on biotinylated 15-mer peptide, supernatant 1/100
T6 peptide: {Biotin-Ahx}-MPSEEGYQDYEPEA
Description: as §1

1-15aa = biological target: T7, 1-15aa; assay: indirect ELISA on biotinylated 15-mer peptide
T7 construct: also called alpha-synuclein peptide 1-15
T7 peptide: {Biotin-Ahx}-MDVFMKGLSKAKEGV
Description: as §1

10-24aa = biological target: T8, 10-24aa; assay: indirect ELISA on biotinylated 15-mer peptide
T8 construct: also called alpha-synuclein peptide 10-24
T8 peptide: {Biotin-Ahx}-KAKEGVVAAAEKTKQ
Description: as §1

91-105aa = biological target: T9, 91-105aa; assay: indirect ELISA on biotinylated 15-mer peptide
T9 peptide: {Biotin-Ahx}-ATGFVKKDQLGKNEE
Description: as §1

1-14aa = biological target: T10, 1-14aa; assay: indirect ELISA on biotinylated 15-mer peptide
T10 construct: also called alpha-synuclein peptide 1-14
T10 peptide: MDVFMKGLSKAKEG-biotin
Description: as §1

B1: ACI-3112H1_1101C8 (bispecific antibody, V domains shown)
VH 1: EVQLQQSGPELVKPGASVKISCKASGYTFSDYFMNWVKQSHGKSLEWIGDINPNNGGSSYIQKFKGKATLTVDKSSTTAYMELRSLTSEDSAVYYCARGSNYAMDSWGQGTSVTVSS
VL 1: DIVMSQSPSSLAVSAGEKVTMSCKSSQSLLNSRTRKNYLAWYQQKPGQSPKLLIYWASTRESGVPDRFTGSGSGTDFTLTISSVQAEDLAVYYCKQSYDLWTFGGGTKLEIK
VH 2: EVQLVESGGGLVQPKGSLKLSCAASGFSFNIYAMNWVRQAPGKGLEWVARIRSKSNNYATYYADSVKDRFTISRADSESMLYLQMNNLKTEDTAMYYCVRVGLRFYAMDYWGQGTSVTVSS
VL 2: DVLMTQTPLSLPVSLGDQASISCRSSQSIVHSNGNTYLEWYLQKPGQSPKLLIYKVSNRFSGVPDRFSGSGSGTDFTLKISRVEAEDLGVYYCFQGSQGPLTFGAGTKLELK
alpha-synuclein seeds [1]
  IC50, percentage of de novo alpha-synuclein aggregates formed in cells after immunodepletion of seeds: 18 nM

B2: ACI-4301D5_3108C10 (bispecific antibody, V domains shown)
VH 1: QVQLQQSGPELVRPGASVKISCKASGYRFTSYYIHWVKQRPGQGLEWIGWIYPGSDNTKHNDKFKGKATLTADTSSSTAYMQLSSLTSEDSAVYFCARDYDVGFGYWGQGTLVTVSS
VL 1: not shown
VH 2: ELQLVESGGGLVRPGGSLKLSCATSGFTFRNYAMSWVRQTPAKRLEWVATISDGGTYTFYSDNVKGRFTISRDNVKNTLYLQMSHLKSEDTAMYYCSRAGSGHWGQGTTLTVSS
VL 2: not shown
alpha-synuclein seeds [1]
  IC50, percentage of de novo alpha-synuclein aggregates formed in cells after immunodepletion of seeds: 21.6 nM

B3: ACI-7067-1113D10-Ab1 (antibody, V domains shown)
VH: EVQLVESGGGLVQPKGSLKLSCAASGFTFNTYALHWVRQAPGKGLEWVARIRSKSSNYATYYADSVKDRFTISRDDSQSMLYLQMNNLKTEDTGMYYCVRGGVSPFDYWGQGTTLTVSS
VL: QIVLTQSPAIMSASPGEKVTMTCSASSSVSYMHWYQQKSGTSPKRWIYDTSKLASGVPARFSGSGSGTSYSLTISSMEAEDSATYYCQQWSNNPPTFGGGTKLEIK
notes: mouse hybridoma mAb; VH/VL only; also called 1113D10E3D5
alpha-synuclein seeds [2]
  aggregation half-time (τ1/2) of seeded alpha-synuclein aggregation, ThT; no antibody 26.9 hours: 30.1 h
64-78aa
  binding result: no binding (tested: supernatant 1/100)
82-96aa
  binding result: no binding (tested: supernatant 1/100)
118-132aa
  binding result: no binding (tested: supernatant 1/100)
46-60aa
  binding result: no binding (tested: supernatant 1/100)
127-140aa
  binding result: binds

B4: ACI-7067-1106A8-Ab2 (antibody, V domains shown)
VH: EVQLVESGGGLVQPKGSLKLSCAASGFTFNTYAMHWVRQAPGKGLEWVARIRSKGSNYATNYADSVKDRFTISRDDSQSMLYLQMNNLKTEDTAMYYCVRGHGSSYFSYWGQGTLVTVSA
VL: B3 VL with K52N, S82A, S91N, N92S, N93H, G99A, I105L
notes: mouse hybridoma mAb; VH/VL only; also called 1106A8H3
64-78aa
  binding result: no binding (tested: supernatant 1/100)
82-96aa
  binding result: no binding (tested: supernatant 1/100)
118-132aa
  binding result: no binding (tested: supernatant 1/100)
46-60aa
  binding result: no binding (tested: supernatant 1/100)
127-140aa
  binding result: binds

B5: ACI-7067-1108B11-Ab2 (antibody, V domains shown)
VH: B4 VH
VL: QIVLTQSPAIMSASPGERITMTCSANSSVTYMHWYQQKSGTSPKRWIYDTSNLASGVPARFSGSGSGTSYSLTISSMEAEDAATYYCQQWKSHPPTFGAGTKLELK
notes: mouse hybridoma mAb; VH/VL only; also called 1108B11D3
alpha-synuclein seeds [2]
  aggregation half-time (τ1/2) of seeded alpha-synuclein aggregation, ThT; no antibody 26.9 hours: 33.3 h
64-78aa
  binding result: no binding (tested: supernatant 1/100)
82-96aa
  binding result: no binding (tested: supernatant 1/100)
118-132aa
  binding result: no binding (tested: supernatant 1/100)
46-60aa
  binding result: no binding (tested: supernatant 1/100)
127-140aa
  binding result: binds

B6: ACI-7079-2501D10-Ab1 (antibody, V domains shown)
VH: EVQLVESGGGLVQPKGSLKVSCAASGFTFKTYAMHWVRQAPGKGLEWVARIRSENSNFAKYYADSVKDRFTISRDDSQSMLYLQMNNLKTEDTAMYYCVRGYNGSSLDYWGQGTTLTVSS
VL: B3 VL with S14F, K18R, S30N, S64G, S76N, S82A, S91R, N92S
notes: mouse hybridoma mAb; VH/VL only; also called 2501D10C3
1-15aa
  binding result: no binding (tested: supernatant 1/100)
10-24aa
  binding result: no binding (tested: supernatant 1/100)
82-96aa
  binding result: no binding (tested: supernatant 1/100)
118-132aa
  binding result: no binding (tested: supernatant 1/100)
91-105aa
  binding result: no binding (tested: supernatant 1/100)
46-60aa
  binding result: no binding (tested: supernatant 1/100)
1-14aa
  binding result: no binding (tested: supernatant 1/100)
127-140aa
  binding result: binds

B7: ACI-7079-2507B3-Ab1 (antibody, V domains shown)
VH: B6 VH with N86H, N87T, M95I
VL: B3 VL with S14F, K18R, S30N, S64G, S76N, S82A, S91R, N92S
notes: mouse hybridoma mAb; VH/VL only; also called 2507B3G8
1-15aa
  binding result: no binding (tested: supernatant 1/100)
10-24aa
  binding result: no binding (tested: supernatant 1/100)
82-96aa
  binding result: no binding (tested: supernatant 1/100)
118-132aa
  binding result: no binding (tested: supernatant 1/100)
91-105aa
  binding result: no binding (tested: supernatant 1/100)
46-60aa
  binding result: no binding (tested: supernatant 1/100)
1-14aa
  binding result: no binding (tested: supernatant 1/100)
127-140aa
  binding result: binds

B8: ACI-7079-2602G4-Ab4 (antibody, V domains shown)
VH: B4 VH with N30K, N57D, N61Y, Y97F, H102G, G103A, S104D, Y106W, S108A, A120T
VL: B3 VL with K18R, V19I, S24T, T68A, S71T, S82A, S91N, N92R, K102Q, E104A
notes: mouse hybridoma mAb; VH/VL only; also called 2602G4H1
1-15aa
  binding result: no binding (tested: supernatant 1/100)
10-24aa
  binding result: no binding (tested: supernatant 1/100)
82-96aa
  binding result: no binding (tested: supernatant 1/100)
118-132aa
  binding result: no binding (tested: supernatant 1/100)
91-105aa
  binding result: no binding (tested: supernatant 1/100)
46-60aa
  binding result: no binding (tested: supernatant 1/100)
1-14aa
  binding result: no binding (tested: supernatant 1/100)
127-140aa
  binding result: binds

B9: ACI-7079-2603F3-Ab1 (antibody, V domains shown)
VH: B4 VH with N61Y, H102G, S104D, Y106W, S108A
VL: B3 VL with K18R, S24T, T68A, S71T, S82A, S91N, N92S, K102Q, E104A
notes: mouse hybridoma mAb; VH/VL only; also called 2603F3H3
1-15aa
  binding result: no binding (tested: supernatant 1/100)
10-24aa
  binding result: no binding (tested: supernatant 1/100)
82-96aa
  binding result: no binding (tested: supernatant 1/100)
118-132aa
  binding result: no binding (tested: supernatant 1/100)
91-105aa
  binding result: no binding (tested: supernatant 1/100)
46-60aa
  binding result: no binding (tested: supernatant 1/100)
1-14aa
  binding result: no binding (tested: supernatant 1/100)
127-140aa
  binding result: binds

B10: ACI-7079-2605B3-Ab2 (antibody, V domains shown)
VH: EVQLVESGGGLVQPKGSLKLSCAASGFIFKTYAMHWVRQAPGKGLEWVARIRSKGGNYATYFADSVKDRFTISRDDSQNMLYLQVNNLKIEDTAMYFCVRGGNYSWFAYWGQGTLVTVSA
VL: B3 VL with S30T, K52Q, Y70H, A79T, S82A, S91T, N92R, E104A
notes: mouse hybridoma mAb; VH/VL only; also called 2605B3D1
1-15aa
  binding result: no binding (tested: supernatant 1/100)
10-24aa
  binding result: no binding (tested: supernatant 1/100)
82-96aa
  binding result: no binding (tested: supernatant 1/100)
118-132aa
  binding result: no binding (tested: supernatant 1/100)
91-105aa
  binding result: no binding (tested: supernatant 1/100)
46-60aa
  binding result: no binding (tested: supernatant 1/100)
1-14aa
  binding result: no binding (tested: supernatant 1/100)
127-140aa
  binding result: binds
